# Experiment: soluble on expression in E. coli; label from the status in PepcDB or PDB records
row,Sequence,soluble on expression in E. coli
1,MNMIPKVAMFGTGYVGLVSGVCIADFGINVICVDVDKEKIDGLNNGKIPIYEPGLDVFLERNIKAGRIQFTTDAKMAIEESNVLFIAVGTPPKENGEADMQYVYAVAETIGQYMNGYKVIVDKSTVPVGTGQVVKKIIADKLKERGVEYSFDVVSNPEFLREGKALYDFTHPDRVVIGVESEEVAEIMKKVYRPLYINETPFVITNIETAEMIKYASNAFLATKITFINEIANLCEKVGANVQQVAMAMGRDGRIGPKFLHAGPGFGGSCFPKDTKALVQIAEKHGVQMSVVNAVIEANERQKKMVAEKLEKFAGDLKGKTIGILGLAFKPETDDVREAPALTIIADLIERGASIRAYDPQAMEEAKKALRKYADNITYCKHAYDTAESVDALVIVTEWHEFRNMDLTLLKKIMRGNIFYDARNIYSRKDIEEKGFVFIGTGV,not soluble
2,MNMTDDLGGNILLLSGHPGSGKSTIAEALANLPGVPKVHFHSDDLWGYIKHGRIDPWLPQSHQQNRMIMQIAADVAGRYAKEGYFVILDGVVRPDWLPAFTALARPLHYIVLRTTAAEAIERCLDRGGDSLSDPLVVADLHSQFADLGAFEHHVLPVSGKDTDQALQSAINALQSGRFRIDASLEHHHHHH,soluble
3,MNNAALRHWKQQQRARLRELRQQVPVTQRMLWSDAITAVLTQGFPFLENQRIGFYWPHQGEYDPIPAMTFLRTRGATLALPEVISKDEPLRFIEWWPEAPMKKDIYGIPFPDNTRGITVDSIIIPLLGFDEQGYRLGYGSGYFDRTLAAMSPRPLAIGVAFEILRLPTIHPQQHDIPMDYIVTEQSILHRTDTGLVPLTAPIVQSETALEHHHHHH,soluble
4,MNNETTTLISLKEAMKRVDHKLQALETQFKELDFTKDNLMQKFEHHSKALASQAAQDEMWTAVRALQLTSMELNILYSYVIEVLICLHTRVLEKLPDLVRGLPTLASVLRRKVKNKRVRVVWESILEECGLQEGDITALCTFFIARGNKAEHYTAKVRQMYIRDVTFLITNMVKNQALQDSLLRAVQVIEKGKAVRTPEKQKSSLEELIPSVKN,soluble
5,MNNIRQLTKDEYPKAIELSWQVFTITGKEDFNNEGLEFFKSFIYNKKCINEIIFYGSFDNEALTGILGIKSNGKHISLFFIKPEYHRHGLGKKLFHYASTLHPSIETTVNSSTYAIPFYRSLGFAVVGEKQNYHGLCSTPMRRYHAVFVQKNKYTLRTWQTEDAHSLVQELNNKKIWDNCRNVFPHPYRLEHAETFIDLIQKKEGIHDFCIEVNGKAVGNIGFTPGTDVECFNAEVGYVIGEKYWNQGIVTDALQEAIYHYFTYTNTIRIFALVFEHNLPSMRVLEKAGFNKVGIMTKSIFKNGHFTNAHLFELLKNVLEHHHHHH,not soluble
6,MNNISIPFEKLGNAKKVGIQLPDGLKRRAIEIAQLIEDRGYDVVISGETSFGACDIDLSILEVVDVLLHFAHTPILKDERVVYVPYFIEYNPKIDLKVDERRIALIATAQYVHKLPEVAEWLRGKGYEVEIGSPRGRVVYPGQVLGCNYSVLRGSNADAVVFIGDGLFHATGAAMYTKKKVYAYNPLSGELKEVDARNFEKKRYLEVSKCVGKSKAGILVSSKPGQRRLRLAEKLKKIGRENGLFCSIIYLNNVRAEELYNLPFDFYVNTACPRIAYDDGARFEKPVISPQEFELLLGLRESIAMDEIEF,not soluble
7,MNNLALQSLTESIAIKYFGKAFKHEVYYNKRLRTTGGRYILSSHNIEINPKQYEMFGEKAVIDIIKHELCHYFLHLAGEGYQHRDKAFKSLSAKVGAPRFCTPTESYQDRANYKYRCIYCEQEFIRIKRVNLEKMRCGRCGGILKLLQTRKLEHHHHHH,not soluble
8,MNNQSQVKVGPPLWLLAELTYDCPLHCPYCSNPTELGDTKDELNTEQWLDVLTQARAMGAVQLGFSGGEPLLRKDLEQMVKHSRELGFYTNLITSGIGLTEKRIAKLKVAGLDHIQISFQGADPEMNDIIAGRGNAFEQKFKMAQSVKAQGYPMVLNFVISKQNISQVEDIMRLSCQLNADYVELATAQYYGWAYDNRDHLLPSQQQLIDAEKIVNEFRDKQQGKGPQFIFVTPDYFEVRPKACMNGWGSTFLTIAPDGSALPCHSAKMLPLKFPNVKDKSISDIWQQDFSFNRFRGDSWMPQPCQSCDEKEKDFGGCRCQAFMMTGDMDKTDPVCSKSPDHHLIQEAIERAKHPKNPLLERVNKRSIKDADIVQIKL,not soluble
9,MNNVLLEVKDLETSLKINNEWLATVENISFELSKGEVLGIVGESGCGKSILSKSIIKLLPEKISKLSNGEVIFDGKRIDTLNEKQLLDIRGNDIAMIFQEPMTALNPVFTIKNQLVESIKSHKKISKKEANKLAKDLLKKVGIARQDEILNSYPHQLSGGMRQRVMIAMAISCSPKLLIADEPTTALDVTIQAQILDLLKELQKETQMAIMMITHDLSVVAEFCDKVLVMYAGQIVEFGGIKEILHNPKHPYTQKLLSTIPKLKEEQKRLETIEGIVPSIQAFHVNKCRFANRCNKKLDICNNQSPKMHVCEDVIVRCHLYKNEYKEI,not soluble
10,MNPFIVADAESCIGCRSCEVACVVAHHEGQFPDKPEYFTPRVKVFKGDQCATAVFCHHCEDAPCASTCPNGAIVELNNRVQVIQEKCIGCKTCMIACPFGMMTVVTETVQPASHRLADVYRRTEAQKCDLCLDQPDGPACIKTCPTQALTLVDQQYLLHQQQQKRQHMALNEHNGRLFSRAVVQAASASSNKSIRDATPVNLLQRPRAPRLEPKKIPLAERKTGFAEIYLPFTESQIHEQAERCLECGDKTICQWTCPLHNAIPKWISLAHQGRIHEAAELSHQTSSLPEVCGRVCPQDRLCEQSCTLNDHDGAVTIGQIERHITETALATGWRPDLSQVKPSGKRVAIIGAGPAGLGCADILVRNGITPVVFDRYPEIGGLLTFGIPAFKLEKSVMTRRREIFTEMGVEFCLNTEIGRDITMENLLHDFDALFLGVGTYRSMRSGLENEDAQGVYDALPFLIGNTQHLMGYTANGAHPYVSMQDQRVVVLGGGDTAMDCVRTSLRQGASRVVCAYRRDEKNMPGSKREVKNAREEGAEFMFNLQPMSIVVDESGQVTGIKMVRTEMGQADAQGRRQALPITGSEHLIPADAVIMAFGFSPHRMSWLAEHNVVLDKHGRVVAPTISGYPYQTSNPKIFAGGDIVRGADLIVTAIAEGRKAAESIAYYLNVL,not soluble
11,MNPFTYSKPTDITAAVNLSGPATRFIAGGTNLLDLMKENVATPEHLIDITGLPLREVSETASGGLMIGALVSNADLAYHPLIEARYPLLSKAVLAGASPQLRNMASTGGNLLQRTRCYYFYDTGVPCNKREPGSGCPAREGLNRIHAILGASDECVATHPSDMCVALAALEAVVHVEGRAGRRTIEFADFHRLPGDAPQRDNQLADDELIIAVELPAQGFASHNAYLKIRDRASYAFALISVAAAIDLDGDVVRDVRLALGGVAHKPWRDKAVEALLIGKPVTREHFAAAADAMLEDAKPLEHNGFKVRLARRAIIRALSDAATGGSAL,not soluble
12,MNPIASNSAVTLHFTIKLKDGSVADSTHNQGKPAKLVMGDGSLSPNFEQCLLGMLPGEKKSVALAAQDAFGAPNPDHVHYMDRSKFLGGDLQLEVGTIMAFSGPDGMEIPGIITEIAGDSVTVDFNHPLAGQDITFDVEILSVE,not soluble
13,MNPIHDRTSDYHKYLKVKQGDSDLFKLTVSDKRYIWYNPDPKERDSYECGEIVSETSDSFTFKTVDGQDRQVKKDDANQRNPIKFDGVEDMSELSYLNEPAVFHNLRVRYNQDLIYTYSGLFLVAVNPFKRIPIYTQEMVDIFKGRRRNEVAPHIFAISDVAYRSMLDDRQNQSLLITGESGAGKTENTKKVIQYLASVAGRNQANGSGVLEQQILQANPILEAFGNAKTTRNNNSSRFGKFIEIQFNNAGFISGASIQSYLLEKSRVVFQSETERNYHIFYQLLAGATAEEKKALHLAGPESFNYLNQSGCVDIKGVSDSEEFKITRQAMDIVGFSQEEQMSIFKIIAGILHLGNIKFEKGAGEGAVLKDKTALNAASTVFGVNPSVLEKALMEPRILAGRDLVAQHLNVEKSSSSRDALVKALYGRLFLWLVKKINNVLCQERKAYFIGVLDISGFEIFKVNSFEQLCINYTNEKLQQFFNHHMFKVEQEEYLKEKINWTFIDFGLDSQATIDLIDGRQPPGILALLDEQSVFPNATDNTLITKLHSHFSKKNAKYEEPRFSKTEFGVTHYAGQVMYEIQDWLEKNKDPLQQDLELCFKDSSDNVVTKLFNDPNIASRAKKGANFITVAAQYKEQLASLMATLETTNPHFVRCIIPNNKQLPAKLEDKVVLDQLRCNGVLEGIRITRKGFPNRIIYADFVKRYYLLAPNVPRDAEDSQKATDAVLKHLNIDPEQYRFGITKIFFRAGQLARIEEAREPN,soluble
14,MNPILAMLKENNISNEQINELFQTLTQNPLAAMATLAQLGLPQDKMQMVLAQVMQNPALIKQAVEELGLDFAKVEAAKAKLQQ,not soluble
15,MNPIVKAPTLNDLPAPPPGKTGWPWTEQNEALPEKMPDGSDWPKISIVTPSYNYGQFIEETIRSVLLQGYPNLEYIVVDGGSTDNTVTIIRKYEKYLKYWASEPDHGQTDAINKGYRYCSGDVFAWLNADDLYYDQSTLLKVINFYQKGYDLIVGECLNINADGTHFNQAITSTEKSDPTYFKKYLRYWSSGFLPQPAIFVKKEMADQCFPLSIELYYAMDFQFFLRVLNQEPKSVWIQEKLTRLRWHEDSKTMGTISRIDFHAIVPEPEVHKVALAEAENLPTWLEKIFFRIQAFDYLSLQPYINSLDNFHWLQITKTIVKRPTLAVWPLFWKIFFRSLLGEQIYKLLKRTIRTNLEHHHHHH,not soluble
16,MNQEKIADLKNWMHQEKIDFTYISDPGHIAYFSGYESEPHERVLALFIAADDQSFLFTPALEVEDAEKSSWTYPVYGYLDSENPWEKIAALLNKRTQGTPRFALEKQALSLARFDQLKTYFPASDFSHDVTPLIEKLQLIKTEPEIQRLLEAGSWADVAFEIGFKAIQAGVAEQEIVAEIEYQLKRQGIRSMSFDTLVLTGKNGASPHGVPGETKIEPHDLVLFDLGVVHNGYCSDATRTVSYLEPSDFQKEIYGIVLEAQLAATEAVKPGVTAGELDDIARGVITKAGYGEYFNHRLGHGIGTTVHEYPSLVHGNDLVIEEGMCFSIEPGIYIPGKVGVRIEDCLHVTKTGSEPFTKTTKELQIIQ,not soluble
17,MNQKIYWDELKEGEQFSYGHYQVSEHENIDFAKRYDPMEFHVDPEKAKLSPIGALCASGIHTLGIMQRLTFDNIYTNWHIVAGRELRKCQFRLPVFVDDCLTVNMTIAKLSVDTRSDRGNAELTFDVKNAKGKTVLEVEGEIVLQRFPSILEHHHHHH,not soluble
18,MNQLLKTLRDFGLSSYEASAYVALVSSGETTAREVSRKAGIPRTKVYEVLNRLVEKGFAEVQPGSPAIFRAIEPAKIAARMQRDFNERLGKMLKAFEELKMDEKSESKLVWISRGRWAVENRLREFLRENDKVMVFCITENFASVLSEVRGEHRVLLYQKFRVPENIREFRVLDLGRIKKAKDGFVARFAEIIEGTEAGKPEILIISEGSSILALSHGEEYLALSIHLPLIVALQKRMFDTLYESYC,not soluble
19,MNRDIGKNAERELVSILRGEGFNAVRIPTSNSSPNPLPDIFATKGNTLLSIECKSTWENKVKVKEHQVRKLLDFLSMFTMKGVPLIAIKFKQVHEWRVLVPEKAEDIIVTIDNSIPIEDLFKILEKRIEEKILTP,soluble
20,MNRGVIVTGGGHGIGKQICLDFLEAGDKVCFIDIDEKRSADFAKERPNLFYFHGDVADPLTLKKFVEYAMEKLQRIDVLVNNACRGSKGILSSLLYEEFDYILSVGLKAPYELSRLCRDELIKNKGRIINIASTRAFQSEPDSEAYASAKGGIVALTHALAMSLGPDVLVNCIAPGWINVTEQQEFTQEDCAAIPAGKVGTPKDISNMVLFLCQQDFITGETIIVDGGMSKRMIYHGDWNWFYKIDK,soluble

# — the DeepSol protein solubility set
